Source: paper PMC6519451

Key:
[1] = molecular target: reconstituted 26S proteasome (wild-type base, lid, Rpn10 and 20S core) (S. cerevisiae) (UniProt P33299)
[2] = molecular target: 26S proteasome reconstituted with Cy3-labeled base (Rpt1-I191AzF-Cy3) (S. cerevisiae) (UniProt P33299); assay: FRET or BRET

Substance	KM of multiple-turnover processing (Michaelis-Menten, anisotropy) [1]	τapp of tail insertion, fast phase [2]	kapp (1/τapp) of tail insertion, fast phase [2]
ubiquitinated titin-I27^V15P-23-K-25, Cy5-labeled (from UniProt P0CG63 1-76)		1.73 s	
ubiquitinated titin-I27^V15P-23-K-11, Cy5-labeled (from UniProt P0CG63 1-76)			1.4 s⁻¹
ubiquitinated titin-I27^V15P-23-K-25 (serine rich), Cy5-labeled (from UniProt P0CG63 1-76)		7.15 s	

The next lines start with the values.

KM of multiple-turnover processing (Michaelis-Menten, anisotropy) [1]	τapp of tail insertion, fast phase [2]	kapp (1/τapp) of tail insertion, fast phase [2]	Substance
2 µM			ubiquitinated titin-I27^V15P-43-K-11 (from UniProt P0CG63 1-76)
	1.61 s	0.62 s⁻¹	ubiquitinated titin-I27^V15P-23-K-35 modified with Cy5 on its unstructured tail (from UniProt P0CG63 1-76)
